Results on one protein are retold here after PMC6969876, “NADPH biosensor-based identification of an alcohol dehydrogenase variant with improved catalytic properties caused by a single charge reversal at the protein surface” (AMB Express, 2020).

This data set deals with the molecule itself. Kind of data set: SEC; Superdex 200 increase 10/300 GL, buffer A (50 mM triethanolamine hydrochloride, 1 mM MgCl2, pH 7.0), 0.75 mL/min; apparent native mass from a calibration curve with carbonic anhydrase, bovine serum albumin, alcohol dehydrogenase and beta-amylase; affinity-purified protein loaded. In general terms: In gel filtration, larger molecules generally elute earlier.

B1: NADPH-dependent alcohol dehydrogenase of Lactobacillus brevis, wild type (LbADH^WT), with N-terminal Strep-tag II (enzyme, UniProt Q84EX5 1-252, looked up)
chain: MSNRLDGKVAIITGGTLGIGLAIATKFVEEGAKVMITGRHSDVGEKAAKSVGTPDQIQFFQHDSSDEDGWTKLFDATEKAFGPVSTLVNNAGIAVNKSVEETTTAEWRKLLAVNLDGVFFGTRLGIQRMKNKGLGASIINMSSIEGFVGDPSLGAYNASKGAVRIMSKSAALDCALKDYDVRVNTVHPGYIKTPLVDDLPGAEEAMSQRTKTPMGHIGEPNDIAYICVYLASNESKFATGSEFVVDGGYTAQ
notes: NADPH-dependent (R-specific) alcohol dehydrogenase of Lactobacillus brevis; 251 amino acid residues and 26.6 kDa per subunit as printed; calculated mass of the monomer with StrepTag-II 28.2 kDa; The plasmid pASK-IBA5plus-Lbadh^WT was a gift (Prof. W. Kroutil); not shown: Strep-tag II, N-terminal, kept
Usually stoichiometry N stands for a count of units in the complex or per binding partner. B1: the “stoichiometry N” value was 4.
